{
  "source": "paper PMC8050779",
  "key": {"[1]": {"target": "oxytocin ion channel-coupled receptor with the T4 phage lysozyme domain, OXTR(T4L) fused to Kir6.2 (not stated | T4 phage) (UniProt P30559)", "sequence (P30559 whole entry, looked up, the tested form may be a part)": "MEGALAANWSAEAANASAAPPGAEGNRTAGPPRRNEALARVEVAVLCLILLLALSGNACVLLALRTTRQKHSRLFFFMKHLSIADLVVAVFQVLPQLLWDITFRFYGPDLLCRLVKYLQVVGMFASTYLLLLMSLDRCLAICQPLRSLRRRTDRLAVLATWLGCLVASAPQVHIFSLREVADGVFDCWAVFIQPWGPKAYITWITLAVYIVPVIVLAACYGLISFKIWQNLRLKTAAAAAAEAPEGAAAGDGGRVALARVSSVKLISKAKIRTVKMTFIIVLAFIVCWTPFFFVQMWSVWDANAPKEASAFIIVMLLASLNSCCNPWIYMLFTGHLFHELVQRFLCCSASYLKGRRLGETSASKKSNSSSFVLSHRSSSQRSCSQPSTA"}, "[2]": {"target": "oxytocin ion channel-coupled receptor with the T4 phage lysozyme domain, OXTR(T4L) fused to Kir6.2 (not stated | T4 phage) (UniProt P30559)", "remark": "listed apart in the source"}},
  "data": [
    {"substance": "oxytocin (from UniProt P01178 20-28) (peptide)", "values": [
      {"measurement": "ICCR activation by 1 μM oxytocin, TEVC, after cholesterol depletion and repletion with cholesterol (% of the control before incubation)", "setting": "[1]", "result": 70},
      {"measurement": "ICCR activation by 1 μM oxytocin, TEVC, after cholesterol depletion and repletion with cholesteryl hemi-succinate (CHS) (% of the control level before incubation)", "setting": "[1]", "result": 45},
      {"measurement": "amplitude of ICCR activation by 1 μM oxytocin, TEVC, after co-incubation with 20 mM MβCD and 5 μM oxytocin for at least 3 h and washing (% of the basal current)", "setting": "[2]", "result": 100},
      {"measurement": "amplitude of ICCR activation by 1 μM oxytocin, TEVC, control without MβCD (Buffer + 5 μM oxytocin, at least 3 h) (% of the basal current)", "setting": "[2]", "result": 120}
    ]}
  ]
}
